Here are results for one molecule from article PMC6433120 (Nature, 2018).

The target of the experiment is T1, CC-SAM domain of murine KSR1 (mouse, UniProt Q61097 25-170).
T1 sequence (looked up): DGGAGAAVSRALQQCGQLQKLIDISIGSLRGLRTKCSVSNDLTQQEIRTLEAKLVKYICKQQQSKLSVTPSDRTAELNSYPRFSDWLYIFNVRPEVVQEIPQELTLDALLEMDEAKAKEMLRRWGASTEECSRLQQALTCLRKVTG
The experiment in a line: NMR titration.

B1: BRS domain of human BRAF (domain or fragment, UniProt P15056 36-114, looked up)
chain: SSAADPAIPEEVWNIKQMIKLTQEHIEALLDKFGGEHNPPSIYLEAYEEYTSKLDALQQREQQLLESLGNGTDFSVSSS
For B1, the binding result is on record as “binds”.
